In article PMC1851640:

Assays:
[1] = target: T1, StpA (Escherichia coli) (UniProt P0ACG1); test: filter binding
T1 sequence: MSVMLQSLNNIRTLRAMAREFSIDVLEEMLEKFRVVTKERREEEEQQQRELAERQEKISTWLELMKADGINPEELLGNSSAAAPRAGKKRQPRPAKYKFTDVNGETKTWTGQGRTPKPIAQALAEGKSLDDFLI

[2] = tested on: G126V-StpA (Escherichia coli); test: filter binding
[3] = target: T2, StpA (Escherichia coli, UniProt P0ACG1 1-134); test: filter binding
T2 sequence: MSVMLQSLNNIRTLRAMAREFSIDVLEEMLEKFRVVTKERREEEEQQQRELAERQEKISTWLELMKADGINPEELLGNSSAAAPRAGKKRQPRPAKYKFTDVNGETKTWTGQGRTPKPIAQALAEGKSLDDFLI

[4] = target: T2, StpA; test: FRET
[5] = target: T2, StpA; test: filter binding; remark: listed apart in the source

Molecule: td mRNA (intronless)
- Kd [1]: 0.58 µM

Molecule: sho-sho td pre-mRNA
- Kd [1]: 0.73 µM
- binding signal [1]: 17 % bound

Molecule: sho-sho tdC865U pre-mRNA
- binding signal [2]: 7 % bound
- binding signal [1]: 27 % bound

Molecule: td ribozyme RNA
- binding signal [1]: 70 % bound

Molecule: AUGUGGAAAAUCUCUAGCAGU (ssRNA) [21R+]
- binding result [3]: binds

B1: 21R+ and duplex- (non-complementary pair) (ssRNA)
RNA 1: AUGUGGAAAAUCUCUAGCAGU
RNA 2: CUUUCAUUGGUCGGUCUCUCC
- binding result [4]: binds

B2: 21R+/21R- duplex (dsRNA)
RNA 1: AUGUGGAAAAUCUCUAGCAGU
RNA 2: ACUGCUAGAGAUUUUCCACAU
- binding result [5]: no binding
